Experimental data: the supplement of paper PMC6755084

tested on: F1*sub RNA substrate (template-directed ligation); experiment: fraction ligated after 30 min (ligated reads / total reads); higher = more ligase activity; sequences stand for … in GAGACCGCAACTGAAAAGTTGT…AGTTCTGCACGTAGAAGCAAAAGGC; details: 42 °C
Procedure, shortened: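 Oligo-pool templates of ligase ribozyme variants were PCR-amplified, T7-transcribed and gel-purified. Ligated and unligated bands were gel-separated, reverse transcribed with barcoded primers, and MiSeq-sequenced; core bases were filtered at quality ≥20. Fraction ligated per variant was ligated reads over total reads.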

Row | Sequence | fraction ligated
1 | TAACTTGCGTAAGACACTTTGGATGGGTTGA [3d511] | 0.085
2 | TATCACTTTCGAAGACACTTTGGATGGGTTG [3d1505] | 0.792
3 | TATCCTTGTCGTAAGACACTTTGATGGGTTG [3d1109] | 0.749
4 | TACACTTGTCGTAAACACTTGGATGGGTTGA [3d675] | 0.0236
5 | TATACTGTCGTAAGCACTTTGGATGGGTTGA [3d785] | 0.759
6 | TATCACTTGTGTAGACACTTTGGATGGGTTG [3d1743] | 0.863
7 | TATCACTTTCGAAGAACTTTGGATGGGTTGA [3d1496] | 0.843
8 | TATCATTGTCGTAAGACACTTTGGATGGGTT [3d1291] | 0.0919
9 | TATCACTTGTCGTAAGACACTTTGAGGGTTA [3d2265] | 0.0074
10 | TATCACTTGCGAAGACACTTTGGATGGGTTG [3d1625] | 0.824
11 | TATCACTTGTCGTAAGACATTGGATGGGTTGA [2d269] | 0.815
12 | TATCACTTGCTAAGAACTTTGGATGGGTTGA [3d1603] | 0.831
13 | TACATTGTCGTAAGACACTTTGGATGGGTTGA [2d49] | 0.223
14 | TATCCTTGTCGTAAGACACTTGGTGGGTTGA [3d1099] | 0.265
15 | TATCCTGTCTAAGACACTTTGGATGGGTTGA [3d953] | 0.785
16 | TTCACTTGTCGTAAGCACTTTGGATGGGTTG [3d461] | 0.601

Row | Sequence | fraction ligated
17 | TATCACTTTCGTAAGACACTTTGATGGTTGA [3d1571] | 0.0696
18 | TTCACTTGTCGTAAGCACTTTGGATGGGTTGA [2d36] | 0.771
19 | TATCACTTGTCGTAGACACTTTGGTGGTTGA [3d2049] | 0.0676
20 | TATCACTTGTCGTAAGACACTGGATGGGTTG [3d2237] | 0.778
21 | ATCACTTGTCGAAGAACTTTGGATGGGTTGA [3d188] | 0.805
22 | TATCACTTGTCGTAAACACTTTGGATGGGTTG [2d243] | 0.827
23 | TATCACTTGTCTAAGCACTTGGATGGGTTGA [3d1849] | 0.766
24 | TATCACTTGTCGTAAGACACTTATGGGTTGA [3d2238] | 0.0156
25 | TATCACTTGTGTAGACCTTTGGATGGGTTGA [3d1735] | 0.845
26 | TATCATGTCGTAAGACACTTGGATGGGTTGA [3d1133] | 0.776
27 | TACACTGTCGTAAACACTTTGGATGGGTTGA [3d573] | 0.181
28 | TATCACTTGTCGTAAGAACTTTGGAGGTTGA [3d2176] | 0.0186
29 | TATCACTTGTCAAGACACTTTGGTGGGTTGA [3d1818] | 0.128
30 | TATCACTTGTGTAAGACACTTTGAGGGTTGA [3d1795] | 0.0251
31 | TACACTTGTCGTAGACACTTTGGATGGGTTA [3d670] | 0.0913
32 | TATCACTTGTCGTAAGACATTTGGATGGTTGA [2d273] | 0.121

tested on: F1*sub RNA substrate (template-directed ligation); experiment: fraction ligated after 30 min (ligated reads / total reads); higher = more ligase activity; details: 42 °C
Description: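 Chip-synthesised pool of F1* ligase ribozyme variants (all single and double substitutions, single, double and triple deletions in the catalytic core and GAA bulge, plus designed variants) was transcribed with T7 and reacted as a pool with excess substrate F1*sub for 30 min at 42 C in 50 mM EPPS pH 8.5, 25 mM MgCl2. Ligated and unligated bands were separated by PAGE, barcoded by RT and deep sequenced; fraction ligated = ligated reads / total reads per variant, relative activity = FL / FL of wild type (0.826). Sequences are the DNA template of the ribozyme.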

Row | Sequence | fraction ligated
33 | GAGACCGCAACTGAAAAGTTGTTATACTTGTCGTAAGACACTTTGGATGGGTTGGTTCTGCACGTAGAAGCAAAAGGC [3d948] | 0
34 | GAGACCGCAACTGAAAAGTTGTTATCACTTGTCGTAAGACACTTTGGATGGGTTGGTTCTGCACGTAGAAGCAAAAGGC [2d299] | 0.02
35 | GAGACCGCAACTGAAAAGTTGTTATCACTTTCGTAAGACACTTTGGATGGGTTGGTTCTGCACGTAGAAGCAAAAGGC [3d1584] | 0.0193
36 | GAGACCGCAACTGAAAAGTTGTTATCACTTGTGTAAGACACTTTGGATGGGTTGGTTCTGCACGTAGAAGCAAAAGGC [3d1809] | 0.0204
37 | GAGACCGCAACTGAAAAGTTGTTATCACTTGTCGTAAGCACTTTGGATGGGTTGGTTCTGCACGTAGAAGCAAAAGGC [3d2151] | 0.116
38 | GAGACCGCAACTGAAAAGTTGTTATCACTTGTCTAAGACACTTTGGATGGGTTGGTTCTGCACGTAGAAGCAAAAGGC [3d1901] | 0.0966
39 | GAGACCGCAACTGAAAAGTTGTATCACTTGTCGTAAGACACTTTGGATGGGTTGGTTCTGCACGTAGAAGCAAAAGGC [3d276] | 0.00404
40 | GAGACCGCAACTGAAAAGTTGTTATCACTTGTCGTAGACACTTTGGATGGGTTGGTTCTGCACGTAGAAGCAAAAGGC [3d2058] | 0.0726
41 | GAGACCGCAACTGAAAAGTTGTTATCCTTGTCGTAAGACACTTTGGATGGGTTGGTTCTGCACGTAGAAGCAAAAGGC [3d1120] | 0.00301
42 | GAGACCGCAACTGAAAAGTTGTTACACTTGTCGTAAGACACTTTGGATGGGTTGGTTCTGCACGTAGAAGCAAAAGGC [3d737] | 0.00325
43 | GAGACCGCAACTGAAAAGTTGTTATCACTTGTCGTAAGACACTTTGATGGGTTGGTTCTGCACGTAGAAGCAAAAGGC [3d2270] | 0.00433
44 | GAGACCGCAACTGAAAAGTTGTTATCACTTGTCGTAAGACACTTTGGATGGGTTGTTCTGCACGTAGAAGCAAAAGGC [3d2283] | 0.021
45 | GAGACCGCAACTGAAAAGTTGTTATCATTGTCGTAAGACACTTTGGATGGGTTGGTTCTGCACGTAGAAGCAAAAGGC [3d1292] | 0.00677
46 | GAGACCGCAACTGAAAAGTTGTTATCACTTGCGTAAGACACTTTGGATGGGTTGGTTCTGCACGTAGAAGCAAAAGGC [3d1704] | 0.0839
47 | GAGACCGCAACTGAAAAGTTGTTATCACTTGTCGTAAGACACTTTGGTGGGTTGGTTCTGCACGTAGAAGCAAAAGGC [3d2276] | 0.00831
48 | GAGACCGCAACTGAAAAGTTGTTATCACTTGTCGTAAGAACTTTGGATGGGTTGGTTCTGCACGTAGAAGCAAAAGGC [3d2182] | 0.0451
49 | GAGACCGCAACTGAAAAGTTGTTATCACTTGTCGTAAGACACTTTGGATGGGTTCGTTCTGCACGTAGAAGCAAAAGGC [s80] | 0.0169
50 | GAGACCGCAACTGAAAAGTTGTTTCACTTGTCGTAAGACACTTTGGATGGGTTGGTTCTGCACGTAGAAGCAAAAGGC [3d507] | 0.00164
51 | GAGACCGCAACTGAAAAGTTGTTATCACTTGTCGTAAGACACTTGGATGGGTTGGTTCTGCACGTAGAAGCAAAAGGC [3d2254] | 0.00633
52 | GAGACCGCAACTGAAAAGTTGTTATCACTTGTCGTAAGACATTTGGATGGGTTGGTTCTGCACGTAGAAGCAAAAGGC [3d2230] | 0.00375
53 | GAGACCGCAACTGAAAAGTTGTTATCACTTGTCGTAAGACCTTTGGATGGGTTGGTTCTGCACGTAGAAGCAAAAGGC [3d2206] | 0.0611
54 | GAGACCGCAACTGAAAAGTTGTTATCACTGTCGTAAGACACTTTGGATGGGTTGGTTCTGCACGTAGAAGCAAAAGGC [3d1463] | 0.0111
55 | GAGACCGCAACTGAAAAGTTGTTATCACTTGTCGTAAGACACTTTGGAGGGTTGGTTCTGCACGTAGAAGCAAAAGGC [3d2280] | 0.0051
56 | GAGACCGCAACTGAAAAGTTGTTATCACTTGTCGTAAGACACTTTGGATGGGTTTGTTCTGCACGTAGAAGCAAAAGGC [s81] | 0.0148
57 | GAGACCGCAACTGAAAAGTTGTTATCACTTGTCGAAGACACTTTGGATGGGTTGGTTCTGCACGTAGAAGCAAAAGGC [3d1980] | 0.102
58 | GAGACCGCAACTGAAAAGTTGTTATCACTTGTCGTAAACACTTTGGATGGGTTGGTTCTGCACGTAGAAGCAAAAGGC [3d2104] | 0.0572
59 | GAGACCGCAACTGAAAAGTTGTTATCACTTGTCGTAAGACACTTTGGATGGTTGGTTCTGCACGTAGAAGCAAAAGGC [3d2282] | 0.0129
